The assay deals with FLAG-tagged MIWI piRISC made in BmN4 cells (mouse) (UniProt Q9JMB7).
FLAG-tagged MIWI piRISC made in BmN4 cells (mouse), sequence (Q9JMB7 whole entry): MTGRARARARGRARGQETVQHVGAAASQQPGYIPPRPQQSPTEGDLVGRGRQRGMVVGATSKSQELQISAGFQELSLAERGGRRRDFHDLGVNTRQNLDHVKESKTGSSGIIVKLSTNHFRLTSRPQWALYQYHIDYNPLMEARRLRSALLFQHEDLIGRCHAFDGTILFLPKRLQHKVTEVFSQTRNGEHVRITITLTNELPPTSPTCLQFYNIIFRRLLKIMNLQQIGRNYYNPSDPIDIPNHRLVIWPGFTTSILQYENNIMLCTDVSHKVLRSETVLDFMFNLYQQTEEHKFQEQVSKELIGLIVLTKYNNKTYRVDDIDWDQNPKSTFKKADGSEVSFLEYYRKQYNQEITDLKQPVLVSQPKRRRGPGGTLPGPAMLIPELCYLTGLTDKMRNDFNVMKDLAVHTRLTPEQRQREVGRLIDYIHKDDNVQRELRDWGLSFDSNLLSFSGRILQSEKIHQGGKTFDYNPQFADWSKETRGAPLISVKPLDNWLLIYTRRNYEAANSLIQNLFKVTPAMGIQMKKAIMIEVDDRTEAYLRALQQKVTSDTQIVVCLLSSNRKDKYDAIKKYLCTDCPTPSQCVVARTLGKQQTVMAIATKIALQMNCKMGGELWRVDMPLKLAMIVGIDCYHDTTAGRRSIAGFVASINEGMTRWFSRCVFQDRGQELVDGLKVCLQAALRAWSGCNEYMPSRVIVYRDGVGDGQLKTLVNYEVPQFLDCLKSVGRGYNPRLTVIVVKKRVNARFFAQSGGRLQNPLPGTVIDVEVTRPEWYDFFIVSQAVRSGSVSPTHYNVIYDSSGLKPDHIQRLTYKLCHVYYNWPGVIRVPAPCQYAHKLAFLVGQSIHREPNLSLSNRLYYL

Substance “BmGtsf1-like, silk moth (Bombyx mori), V5SBP-tagged recombinant (natural protein)” yielded an increase in the amount of target cleaved by MIWI piRISC (S.D. = 0.1; p = 0.0027) of 2.6 fold.

The values above are taken from paper doi:10.1101/2021.05.04.442675.
